Laboratory results as given in article PMC8509413.

Legend:
[1] = biological target: wild-type equine lutropin/choriogonadotropin receptor (eLH/CGR) (equine)
[2] = biological target: wild-type equine lutropin/choriogonadotropin receptor (eLH/CGR) (equine); remark: listed apart in the source

recombinant equine chorionic gonadotropin (rec-eCGβ/α) (from UniProt P08751 21-169; P01220 25-120) (ligand)
EC50 of rec-eCG-stimulated cAMP accumulation (HTRF) in transiently transfected CHO-K1 cells, 30 min (eLH/CGR-D564G (equine)): 0.0583 µg/mL | EC50 of rec-eCG-stimulated cAMP accumulation (HTRF) in transiently transfected CHO-K1 cells, 30 min (eLH/CGR-D578Y (equine)): 0.0479 µg/mL | EC50 of rec-eCG-stimulated cAMP accumulation (HTRF) in transiently transfected CHO-K1 cells, 30 min (eLH/CGR-L457R (equine)): 0.0244 µg/mL | EC50 of rec-eCG-stimulated cAMP accumulation (HTRF) in transiently transfected CHO-K1 cells, 30 min (eLH/CGR-M398T (equine)): 0.0198 µg/mL | EC50 of rec-eCG-stimulated cAMP accumulation (HTRF) in transiently transfected CHO-K1 cells, 30 min (experiment of Table 1) [1]: 0.0442 µg/mL | EC50 of rec-eCG-stimulated cAMP accumulation (HTRF) in transiently transfected CHO-K1 cells, 30 min (eLH/CGR-D405N (equine)): 0.135 µg/mL | EC50 of rec-eCG-stimulated cAMP accumulation (HTRF) in transiently transfected CHO-K1 cells, 30 min (eLH/CGR-R464H (equine)): 0.914 µg/mL | EC50 of rec-eCG-stimulated cAMP accumulation (HTRF) in transiently transfected CHO-K1 cells, 30 min (eLH/CGR-Y546F (equine)): 0.0959 µg/mL | EC50 of rec-eCG-stimulated cAMP accumulation (HTRF) in transiently transfected CHO-K1 cells, 30 min (separate experiment of Table 2) [2]: 0.0303 µg/mL
